From patent publication US20230053214

Target: human tau (441 amino acids), wild-type

B1: human wild-type p38γ (HA-tagged) (protein)
chain: MSSPPPARSGFYRQEVTKTAWEVRAVYRDLQPVGSGAYGAVCSAVDGRTGAKVAIKKLYRPFQSELFAKRAYRELRLLKHMRHENVIGLLDVFTPDETLDDFTDFYLVMPFMGTDLGKLMKHEKLGEDRIQFLVYQMLKGLRYIHAAGIIHRDLKPGNLAVNEDCELKILDFGLARQADSEMTGYVVTRWYRAPEVILNWMRYTQTVDIWSVGCIMAEMITGKTLFKGSDHLDQLKEIMKVTGTPPAEFVQRLQSDEAKNYMKGLPELEKKDFASILTNASPLAVNLLEKMLVLDAEQRVTAGEALAHPYFESLHDTEDEPQVQKYDDSFDDVDRTLDEWKRVTYKEVLSFKPPRQLGARVSKETPL
For B1, the “in vitro kinase assay with tau variants mutated to alanine” value was “confirmed site-specific phosphorylation of S199, T205, S396 and S404 by p38γ” and the “in vitro kinase assay, immunoblotting with phosphorylation site specific antibodies” value was “showed phosphorylation of tau at S199, T205, S396 and S404, but not other sites tested by p38γ”.
